Test [1] concerns the target full-length beta-Catenin (Uniprot ID P35222) (Homo sapiens (Human)) (UniProt P35222). Description: fluorescence polarization competition; displacement of 5FAM-TCF4(10-53) from full-length beta-catenin. On the technique in general: In fluorescence polarisation assays a small probe gives low polarisation when free and higher when bound to something large.
Target sequence in this assay (P35222 whole entry): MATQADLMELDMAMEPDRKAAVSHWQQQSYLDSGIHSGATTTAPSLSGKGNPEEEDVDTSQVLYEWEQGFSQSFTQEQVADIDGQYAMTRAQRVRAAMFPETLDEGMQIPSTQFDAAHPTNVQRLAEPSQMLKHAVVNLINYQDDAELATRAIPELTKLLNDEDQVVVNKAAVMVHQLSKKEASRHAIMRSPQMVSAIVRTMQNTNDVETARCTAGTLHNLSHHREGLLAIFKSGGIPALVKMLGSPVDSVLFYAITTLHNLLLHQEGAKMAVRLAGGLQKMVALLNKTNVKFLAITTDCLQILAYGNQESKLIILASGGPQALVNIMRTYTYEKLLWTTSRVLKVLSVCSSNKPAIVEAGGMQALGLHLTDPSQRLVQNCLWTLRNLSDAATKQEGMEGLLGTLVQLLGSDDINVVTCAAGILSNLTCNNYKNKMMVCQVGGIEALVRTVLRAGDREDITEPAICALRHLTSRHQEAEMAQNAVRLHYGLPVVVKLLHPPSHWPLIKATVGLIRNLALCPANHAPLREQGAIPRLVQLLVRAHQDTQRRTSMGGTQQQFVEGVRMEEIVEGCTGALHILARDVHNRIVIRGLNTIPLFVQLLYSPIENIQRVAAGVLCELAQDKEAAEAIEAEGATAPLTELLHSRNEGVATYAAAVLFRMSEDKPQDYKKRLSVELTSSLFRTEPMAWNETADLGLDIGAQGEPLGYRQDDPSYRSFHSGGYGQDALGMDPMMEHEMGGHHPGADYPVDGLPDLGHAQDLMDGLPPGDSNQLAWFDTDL
Test [2] shares this target. Description: fluorescence polarization competition; full-length beta-catenin with 5FAM-TCF4(10-53) probe as competitor.
Test [3] shares this target. Description: fluorescence polarization competition; full-length beta-catenin, competitor 5FAM-TCF4(10-53) probe.
For test [4] the target is unchanged. The experiment in a line: fluorescence polarization competition; full-length beta-catenin, 5FAM-TCF4(10-53) probe as competitor.
Target sequence in this assay (P35222 2-781 limits assumed): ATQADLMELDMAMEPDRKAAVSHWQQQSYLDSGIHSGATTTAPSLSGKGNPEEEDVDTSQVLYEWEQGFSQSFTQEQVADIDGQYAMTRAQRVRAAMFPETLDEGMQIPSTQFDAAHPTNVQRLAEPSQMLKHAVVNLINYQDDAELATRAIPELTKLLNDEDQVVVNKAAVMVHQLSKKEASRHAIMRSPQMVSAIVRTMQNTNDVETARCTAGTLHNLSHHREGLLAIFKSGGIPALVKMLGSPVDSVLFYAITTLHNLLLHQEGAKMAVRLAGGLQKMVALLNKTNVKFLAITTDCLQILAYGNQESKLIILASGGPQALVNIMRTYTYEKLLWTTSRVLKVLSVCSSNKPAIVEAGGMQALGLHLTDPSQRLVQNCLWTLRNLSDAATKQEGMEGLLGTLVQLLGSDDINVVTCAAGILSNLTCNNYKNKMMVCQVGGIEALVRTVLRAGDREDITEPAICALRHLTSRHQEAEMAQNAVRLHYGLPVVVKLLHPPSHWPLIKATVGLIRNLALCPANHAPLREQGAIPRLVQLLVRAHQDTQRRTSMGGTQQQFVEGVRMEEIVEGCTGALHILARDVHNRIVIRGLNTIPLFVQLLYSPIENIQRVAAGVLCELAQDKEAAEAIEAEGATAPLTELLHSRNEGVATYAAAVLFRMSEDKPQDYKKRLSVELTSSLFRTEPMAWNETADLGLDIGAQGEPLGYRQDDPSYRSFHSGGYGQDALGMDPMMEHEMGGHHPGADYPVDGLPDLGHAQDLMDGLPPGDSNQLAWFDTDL

Starred links: 1 amine or outer side, 2 acyl side, 3 side chain; linkers in the order of their positions; H or OH if unused. Positions of bridges follow the written chain, without caps; N, C: chain ends. Non-standard residues stand in square brackets, D forms with d. Primed or numbered codes have the meaning given here. *: point of attachment. B5(23) = 2-amino-2-(pent-4-en-1-yl)hept-6-enoic acid (2,2-bis(4-pentenyl)glycine), stitching residue, C=CCCCC(CCCC=C)(N[*:1])C(=O)[*:2]; B5(4) = 2,2-bis(4-pentenyl)glycine = 2-amino-2-(pent-4-en-1-yl)hept-6-enoic acid (stitching residue), C=CCCCC(CCCC=C)(N[*:1])C(=O)[*:2]; B5(5) = 2,2-bis(4-pentenyl)glycine, 2-amino-2-(pent-4-en-1-yl)hept-6-enoic acid (stitching residue), C=CCCCC(CCCC=C)(N[*:1])C(=O)[*:2]; TfeGA(3) = (S)-2-amino-3-((carboxymethyl)(2,2,2-trifluoroethyl)amino)prop[anoic acid], O=C([C@H](CN(CC(=O)[*:3])CC(F)(F)F)N[*:1])[*:2]; PyrS2 = (S)-3-amino-1-((pent-4-en-1-yloxy)carbonyl)pyrrolidine-3-carboxylic acid, C=CCCCOC(=O)N1CC[C@@](N[*:1])(C(=O)[*:2])C1; B5(7) = 2-amino-2-(pent-4-en-1-yl)hept-6-enoic acid, two olefinic side chains, C=CCCCC(CCCC=C)(N[*:1])C(=O)[*:2]; Phe(4-COOH) = N[C@@H](Cc1ccc(C(=O)O)cc1)C(=O)O; Abu(4,4,4-F3) = N[C@@H](CC(F)(F)F)C(=O)O; Ala(2-furyl) = N[C@@H](Cc1ccco1)C(=O)O; Bta = N[C@@H](Cc1csc2ccccc12)C(=O)O; αAllylPro = C=CC[C@@]1(C(=O)O)CCCN1; tBuAla = CC(C)(C)C[C@H](N)C(=O)O; 2Thi = N[C@@H](Cc1cccs1)C(=O)O; 3Thi = N[C@@H](Cc1ccsc1)C(=O)O; Cit = NC(=O)NCCC[C@H](N)C(=O)O; S8 = C=CCCCCCC[C@](C)(N)C(=O)O; Dab = NCC[C@H](N)C(=O)O; Abu = CC[C@H](N)C(=O)O; Dap = NC[C@H](N)C(=O)O; Acryloyl = C=CC(=O)*

Ac-[αAllylPro]DI[B5(4)]DDAA[2Thi]Q[S8]F[Bta]H-NH2 (staple 1-4, 4-11) [I-489]: the EC50 (commonly the concentration needed to bring the measured effect to its halfway point) in test [1] is 57 nM. In test [2], the half-inhibitory concentration (IC50) (as a rule, the concentration needed to halve the response being measured) came to 57 nM.

As to Ac-[αAllylPro]DI[B5(4)]DDAAFQ[S8][Dap](Acryloyl)[Bta]Q-NH2 (staple 1-4, 4-11; also: earlier eluting HPLC peak (staple isomer)) [I-483], the EC50 in test [1] amounted to 5000 nM. In addition, the 50% inhibitory concentration (IC50) in test [2] was 5000 nM.

Ac-[αAllylPro]DI[B5(4)]D[TfeGA(3)]AAFQ[S8]F[Bta]H-NH2 (staple 1-4, 4-11) [I-500] came in with an EC50 in test [1] of 176 nM. This molecule gave an IC50 in test [2] of 176 nM.

Turning to Ac-[αAllylPro]DI[B5(4)]DEAA[2Thi]Q[S8]F[Bta]H-NH2 (staple 1-4, 4-11) [I-488], the EC50 in test [1] came to 43 nM. The same molecule had an IC50 in test [2] of 43 nM. Ac-[αAllylPro]DI[B5(5)]D[Cit]AAFQ[S8]F[Bta]Q-NH2 (staple 1-4, 4-11) [I-605] gave an IC50 in test [2] of 632 nM. The molecule further returned an EC50 in test [3] of 632 nM. With Ac-[αAllylPro]D[tBuAla][B5(7)]DDAAFQ[PyrS2][3Thi][Bta]H-NH2 (staple 1-4, 4-11; also: earlier-eluting staple isomer) [I-771], the IC50 in test [2] came to 5 nM. For the same molecule, the EC50 in test [3] was 5 nM. Turning to Ac-[αAllylPro]DA[B5(4)]DEAA[2Thi]Q[S8]F[Bta]Q-NH2 (staple 1-4, 4-11; also: earlier eluting HPLC peak (staple isomer)) [I-486], in test [1], the EC50 was determined as 147 nM. The molecule also showed an IC50 in test [2] of 147 nM.

Ac-[αAllylPro]DI[B5(4)]DDAAFQ[S8][Dap](Acryloyl)[Bta]Q-NH2 (staple 1-4, 4-11; also: later eluting HPLC peak (staple isomer)) [I-484] came in with an EC50 in test [1] of 5000 nM. Further, in test [2], the IC50 is 5000 nM. Regarding Ac-[αAllylPro]D[tBuAla][B5(23)]NNAAFL[PyrS2][3Thi][Bta]Q-NH2 (staple 1-4, 4-11) [I-1557], the IC50 in test [4] was 342 nM. Ac-[αAllylPro]D[Abu(4,4,4-F3)][B5(4)]DEAAFQ[S8]F[Bta]Q-NH2 (staple 1-4, 4-11; also: earlier eluting HPLC peak (staple isomer)) [I-501]: in test [1], the EC50 came to 94 nM. In test [2], the IC50 worked out at 94 nM. Take Ac-[αAllylPro]DI[B5(4)]DDAAFQ[S8]F[Bta][Dab]-NH2 (staple 1-4, 4-11) [I-482]: the EC50 in test [1] worked out at 118 nM. Also, the IC50 in test [2] worked out at 118 nM. In turn, Ac-[αAllylPro]D[Abu][B5(4)]DEAAFN[S8]F[Bta]Q-NH2 (staple 1-4, 4-11) [I-474] showed an EC50 in test [1] of 43 nM. The molecule further had an IC50 in test [2] of 43 nM. The molecule Ac-[αAllylPro]D[tBuAla][B5(7)]DDAAFQ[PyrS2][3Thi][Bta]H-NH2 (staple 1-4, 4-11; also: later-eluting staple isomer) [I-772] gave an IC50 in test [2] of 7 nM. In test [3], the EC50 is 7 nM.

Turning to Ac-[αAllylPro]D[tBuAla][B5(7)]DDAAFQ[PyrS2][3Thi][Bta]Q-NH2 (staple 1-4, 4-11; also: later-eluting staple isomer) [I-764], in test [2], the IC50 is 14 nM. This molecule displayed an EC50 in test [3] of 14 nM.

Ac-[αAllylPro]D[tBuAla][B5(4)]QQAAFN[PyrS2][3Thi][Bta]Q-NH2 (staple 1-4, 4-11) [I-1558] came in with an IC50 in test [4] of 678 nM.

In test [1], Ac-[αAllylPro]DA[B5(4)]DEAAFQ[S8]F[Bta][Ala(2-furyl)]-NH2 (staple 1-4, 4-11) [I-490] gave an EC50 of 88 nM. Also, the IC50 in test [2] was determined as 88 nM. In test [4], Ac-[αAllylPro]DA[B5(23)]NNAAFN[PyrS2][3Thi][Bta]Q-NH2 (staple 1-4, 4-11) [I-1556] showed an IC50 of 385 nM. Ac-[αAllylPro]D[tBuAla][B5(7)]DDAAFQ[PyrS2][3Thi][Bta]Q-NH2 (staple 1-4, 4-11; also: earlier-eluting staple isomer) [I-763] displayed an IC50 in test [2] of 5 nM. Also, the EC50 in test [3] came out at 5 nM. In test [2], Ac-[αAllylPro]DI[B5(5)]D[Cit]AAFQ[S8]F[Bta]Q-NH2 (staple 1-4, 4-11; also: staple isomer, earlier eluting HPLC peak) [I-604] showed an IC50 of 692 nM. Moreover, the EC50 in test [3] came out at 692 nM. Ac-[αAllylPro]DI[B5(5)]D[Phe(4-COOH)]AAFQ[S8]F[Bta]Q-NH2 (staple 1-4, 4-11) [I-607] displayed an IC50 in test [2] of 253 nM. The molecule also displayed an EC50 in test [3] of 253 nM.

Ac-[αAllylPro]D[Abu][B5(4)]DEAAFN[S8]F[Bta]Q-NH2 (staple 1-4, 4-11) [I-473] came in with an EC50 in test [1] of 121 nM. This molecule also returned an IC50 in test [2] of 121 nM. In test [2], Ac-[αAllylPro]DI[B5(5)]D[Phe(4-COOH)]AAFQ[S8]F[Bta]Q-NH2 (staple 1-4, 4-11; also: staple isomer, earlier eluting HPLC peak) [I-606] came in with a 50% inhibitory concentration (IC50) of 289 nM. In test [3], this molecule had an EC50 of 289 nM. For Ac-[αAllylPro]DA[B5(4)]D[TfeGA(3)]AAFQ[S8]F[Bta]H-NH2 (staple 1-4, 4-11) [I-499], the EC50 in test [1] amounted to 123 nM. Besides, the IC50 in test [2] worked out at 123 nM.

In test [4], Ac-[αAllylPro]D[tBuAla][B5(4)]TNAAFN[PyrS2][3Thi][Bta]Q-NH2 (staple 1-4, 4-11) [I-1559] came in with an IC50 of 9680 nM.

With Ac-[αAllylPro]DA[B5(4)]DEAA[2Thi]Q[S8]F[Bta]Q-NH2 (staple 1-4, 4-11; also: later eluting HPLC peak (staple isomer)) [I-487], in test [1], the EC50 was found to be 45 nM. For the same molecule, the IC50 in test [2] came to 45 nM.

Source of the values: patent US20240116985A1, “STAPLED PEPTIDES AND METHODS THEREOF” (priority 2020, published 2024).
